Experimental data from patent US20090082262.

How the values were obtained:
[1] = test system: T1, full size HCC-1 (HCC-1, residues 1-74)
T1 sequence: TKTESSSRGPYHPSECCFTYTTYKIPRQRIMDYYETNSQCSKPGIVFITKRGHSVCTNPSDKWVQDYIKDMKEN

PHC-1 (HCC-1[9-74]) = test system: T2, PHC-1 (HCC-1[9-74])
T2 sequence: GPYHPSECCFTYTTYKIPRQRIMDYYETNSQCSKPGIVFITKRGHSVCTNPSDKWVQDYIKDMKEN

For trypsin, the “tryptic digestion, 1 h, enzyme/substrate-ratio (w/w) 1/100” value [1] was “One cleavage product, the newly identified biologically active peptide PHC-1, comprising residues 9-74 of the HCC-1 precursor sequence, with the molecular mass of 7795 Da was obtained”.

With urokinase the “proteolytic degradation, activity after 90 min at 37° C with 10 or 100 IU urokinase” value (PHC-1 (HCC-1[9-74])) was “No change of activity was observed after an incubation of 90 min at 37 °C” and the “proteolytic cleavage; product analysed by RP-HPLC, CCR5 aequorin assay, mass spectrometry and Edman degradation” value [1] was “identifying PHC-1 and full size HCC-1 as the major compounds in these fractions”.
